This series concerns the molecule itself. Nature of the series: in vitro fibril formation (negative-stain TEM, with ThT fluorescence, Congo red absorption and ATR-FTIR of the fibrils); 80 µM protein in 50 mM Tris buffer (pH 8.0), 7 days at 37 °C, 300 rpm; self-assembly into amyloid-like fibrils.

B1: full-length murine serum amyloid A 1.1, SAA(1–103) (natural protein, mouse, UniProt P05367 20-122, looked up)
chain: GFFSFIGEAFQGAGDMWRAYTDMKEAGWKDGDKYFHARGNYDAAQRGPGGVWAAEKISDARESFQEFFGRGHEDTMADQEANRHGRSGKDPNYYRPPGLPAKY
notes: Serum amyloid A 1.1 (SAA1.1), mouse, 103 residues; also called murine SAA1.1; mSAA; source: E. coli RV308 (pMal-c2X vector), purified as described previously, lyophilized
With B1, the binding result is on record as “binds”.

(Values after publication PMC5522423, “Influence of C-terminal truncation of murine Serum amyloid A on fibril structure” (Scientific Reports, 2017).)
